The values that follow are results of earlier work, collected in patent publication US20220259272A1, “PHOTOACTIVE COMPOSITIONS FOR T[…] DELIVERY” (The University of North Carolina at Chapel Hill, priority 2019, published 2022).

For series [1] the following is noted: 1 mg/kg, up to 100 mg.
For series [2] the following is noted: in vivo.
For series [3] the following is noted: in vivo. This is another data set of the same source.

For the substance “tPA: enzyme that activates plasminogen to generate plasmin, which dissolves the clot”, in series [1], the “catastrophic intracerebral hemorrhage, share of patients” value is listed as roughly 10%. Also, in series [2], the circulatory lifetime is 5 min.
With “TF: protein that promotes blood clotting in the cascade activating thrombin”, the circulatory half-life in series [3] is recorded as less than 1 min.
